Tests used:
Test in all cases: competition ELISA, antibody preincubated with target, AMH-coated plate
[1] = molecular target: T1, human AMH36-47 short peptide, mutation site 47 (human)
T1 peptide: GLIFREDLDWPA
Description: (§1) 1. AMH antigen was diluted with carbonic acid buffer (20 mmol/L CB, pH 9.6) and then coated on a polyvinyl chloride plate. In the pretreatment, the antibody purified by the protein A column and the synthesized short peptides with different human AMH36-47 amino acid mutations were subjected to proportion incubation (100 ng/ml antibody: 50 ug/ml truncated antigen) for 30 minutes, that were test samples; the control sample was (100 ng/ml antibody: PBS) and incubated for 30 minutes, and then the test samples after incubation and the control sample were added to AMH antigen plate and incubated for 30 minutes, the plate was washed for 5 times, added with GAM-HRP (1/5000 dilution) and incubated for 30 minutes, the plate was washed for 5 times, and the substrate was added and incubated for 15 minutes. The values under wavelength of 450/620 were read by microplate reader, and the detected OD values were finally calculated and analyzed. The calculation formula was: (control sample OD value−test sample OD value)/control sample OD value, and the criterion for determination was as follows: a value lower than 90% indicated the corresponding amino acid was a key amino acid, and the mutation has a great impact on the reaction of antibody.

[2] = molecular target: T2, human AMH36-47 short peptide, mutation site 36 (human)
T2 peptide: ALIFREDLDWPP
Description: as §1

[3] = molecular target: T3, human AMH36-47 short peptide, mutation site 39 (human)
T3 peptide: GLIAREDLDWPP
Description: as §1

[4] = molecular target: T4, human AMH36-47 short peptide, mutation site 45 (human)
T4 peptide: GLIFREDLDAPP
Description: as §1

[5] = molecular target: T5, human AMH36-47 short peptide, mutation site 42 (human)
T5 peptide: GLIFREALDWPP
Description: as §1

[6] = molecular target: T6, AMH truncated antigen 36-47 (human)
T6 construct: also called human AMH36-47; AMH3647-27 (Human)
T6 peptide: GLIFREDLDWPP

[7] = molecular target: T7, AMH3647-1 (Deer sequence) (Deer)
T7 peptide: ALIFQQDWDWPL

AMH3647-7 (Cat sequence) = molecular target: T8, AMH3647-7 (Cat sequence) (Cat)
T8 peptide: GLIFHPDWDWQP

[8] = molecular target: T9, AMH3647-15 (Guinea pig sequence) (Guinea pig)
T9 peptide: GLIFPEDQVWPP

[9] = molecular target: T10, AMH3647-23 (Cattle sequence) (Cattle)
T10 peptide: ALIFQQAWDWPL

[10] = molecular target: T11, AMH3647-13 (Rat sequence) (Rat)
T11 peptide: GLIFLEDGVWPP

[11] = molecular target: T12, AMH3647-22 (Mouse sequence) (Mouse)
T12 peptide: GLIFLEDELWPP

[12] = molecular target: T13, AMH3647-25 (Horse sequence) (Horse)
T13 peptide: GLIFHQDWDWPP

[13] = molecular target: T14, AMH3647-18 (Simum sequence) (Simum)
T14 peptide: GLIFRQDWDWPP

[14] = molecular target: T15, AMH3647-19 (Dog sequence) (Dog)
T15 peptide: GLLFQPDWDWPP

[15] = molecular target: T16, AMH3647-9 (Horseshoe bat sequence) (Horseshoe bat)
T16 peptide: GLIFHQDWDWSP

[16] = molecular target: T17, AMH3647-2 (Beaver sequence) (Beaver)
T17 peptide: DLIFHEDWAWPP

[17] = molecular target: T18, AMH3647-24 (Owl sequence) (Owl)
T18 peptide: GLIFGEDVDWPP

[18] = molecular target: T19, AMH3647-11 (Neotoma sequence) (Neotoma)
T19 peptide: GLIFLEDGIWPP

[19] = molecular target: T20, AMH3647-3 (Hamster sequence) (Hamster)
T20 peptide: GLIFFEDGIWPL

[20] = molecular target: T21, AMH3647-12 (Gerbil sequence) (Gerbil)
T21 peptide: GLIFLEDGLWPP

[21] = molecular target: T22, AMH3647-10 (Pig sequence) (Pig)
T22 peptide: GLIFHWDWNWPP

[22] = molecular target: T23, AMH3647-4 (Lemur sequence) (Lemur)
T23 peptide: GLIFHEDWDWLP

[23] = molecular target: T24, AMH3647-20 (Goat sequence) (Goat)
T24 peptide: TLIFQQDWDWPL

[24] = molecular target: T25, AMH3647-16 (Degu sequence) (Degu)
T25 peptide: GLIFPEDWVWPP

[25] = molecular target: T26, AMH3647-8 (Myotis sequence) (Myotis)
T26 peptide: GLIFHQDWDWPA

[26] = molecular target: T27, AMH3647-17 (Chimpanzee sequence) (Chimpanzee)
T27 peptide: GLIFPEDLDWPP

[27] = molecular target: T28, AMH3647-6 (Otolemur sequence) (Otolemur)
T28 peptide: GLIFHKDWDWQP

B1: monoclonal antibody C9F2-2 (antibody, V domains shown)
VH: EVQLVESGGGLVKPGGSLKLSCAASGFAFSTYDMSWVRQTPEKRLEWVAYISPGGGATYYPDTVKGRFTISRDNAKNTLYLQMTSLKSEDTAMYYCAGRRDYYGMDYWGQGTSVTVSS
VL: DVVMTQTPLSLPVSLGDQASISCRSSQSLVHSNGNTYLHWYLQKPGQSPKLLIYKVSNRFSGVPDRFSGSGSGTDFTLKISRVEAEDLGVYFCSQSTHVPWTFGGGTKLEIK
notes: Mouse hybridoma antibody purified from ascites; the tie is indirect; also called hybridoma CCTCC NO: C2018183
With B1 the percent inhibition [1] was 99%, the percent inhibition [2] was 100% and the percent inhibition [3] was 9%. It also gave a percent inhibition [4] of 100%, a percent inhibition [5] of 98% and a percent inhibition [6] of 100%. The percent inhibition [7] was -6%, the percent inhibition (AMH3647-7 (Cat sequence)) was 6% and the percent inhibition [8] was 2%. It also gave a percent inhibition [9] of -8%, a percent inhibition [10] of 11% and a percent inhibition [11] of -9%. The percent inhibition [12] was -2%, the percent inhibition [13] was 19% and the percent inhibition [14] was -1%. The percent inhibition [15] was -3%, the percent inhibition [16] was 11% and the percent inhibition [17] was 19%. For the same binder, the percent inhibition [18] was 5%, the percent inhibition [19] was 8% and the percent inhibition [20] was 5%. It also gave a percent inhibition [21] of 8%, a percent inhibition [22] of 22% and a percent inhibition [23] of 3%. For the same binder, the percent inhibition [24] was -2%, the percent inhibition [25] was 8% and the percent inhibition [26] was 9%. The percent inhibition [27] was 3%.

— patent US20220146515A1 (XIAMEN INNODX BIOTECH, published 2022)
